US20240092914A1 (NEW PARADIGM BIOSCIENCES USA, published 2024)
Several values for one entry are separate records, joined by “and”; a condition that tells them apart may be missing. Identical values can stand only once.

Tests used:
[1] = target: human BDCA2 on human plasmacytoid dendritic cells (human) (UniProt Q8WTT0); assay: flow cytometry on human PBMC with APCCy7-labelled control antibody, gate Lin- then CD4+CD123+ (pDC)
[2] = target: T1, BDCA-2 antigen (Biorbyt CLEC4C orb358925) (human, UniProt Q8WTT0); assay: ELISA, plate coated with BDCA-2 antigen, detection with HRP anti-human IgG Fc, A450 corrected by A590
T1 construct: recombinant protein, construct not described; It is kept apart from m4 because it is a different preparation; also called human BDCA2 antigen
T1 sequence (antigen, looked up): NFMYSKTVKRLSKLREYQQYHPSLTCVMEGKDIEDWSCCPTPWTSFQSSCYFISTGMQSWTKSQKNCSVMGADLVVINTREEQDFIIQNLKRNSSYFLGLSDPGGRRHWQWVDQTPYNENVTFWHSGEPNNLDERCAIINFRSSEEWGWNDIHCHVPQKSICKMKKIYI
Description: Briefly, Nunc MaxiSorp 96-well plates were coated with BDCA-2 antigen (Biorbyt CLEC4C orb358925) overnight at 4° C. After washing, the plates were blocked by the Blocking Buffer (1% BSA in 1×PBS). […] After 1 hour incubation at room temperature, the plates were washed and added with the secondary antibody (HIRP-conjugated Goat anti-Human IgG Fc antibody; ThermoFisher A18829) for 1 hour at RT. The signals were developed by adding TMB substrate reagent (ThermoFisher 34021). The signals at 450 nm and 590 nm were read on the plate reader.

[3] = target: T2, recombinant human BDCA2 extracellular domain (UniProt Q8WTT0, residues 45-213) (human, UniProt Q8WTT0 45-213); assay: SPR / in vitro binding to BDCA2 proteins (FIG. 7, FIG. 8)
T2 construct: range 45-213; also called recombinant BDCA2 proteins; BDCA2 proteins
T2 sequence (looked up): T1 sequence (antigen, looked up)

[4] = target: T2, recombinant human BDCA2 extracellular …; assay: SPR (Biacore), antibody captured on anti-human Fc chip, recombinant BDCA2 flowed over; small-scale batch
Description: BDCA2 antibody binding kinetics were measured using a Biacore surface plasmon resonance (SPR) instrument (GE Life Sciences). Briefly, anti-BDCA2 antibodies were captured on an anti-human Fc chip. The recombinant BDCA2 proteins were then flowed over the captured antibodies over a range of concentrations, at a rate of 50 μL/minute. The data was analyzed to determine kinetic constants using the BIAevaluation software package (GE Life Sciences). The sensorgrams of SPR based affinity testing for all 24 antibodies are shown in FIG. 55, and the biophysical characteristics of all 24 antibodies are summarized in Table 5.

[5] = target: T3, human BDCA2 on human plasmacytoid dendritic cells (human, UniProt Q8WTT0 1-213); assay: cell-based or functional assay
T3 sequence (looked up): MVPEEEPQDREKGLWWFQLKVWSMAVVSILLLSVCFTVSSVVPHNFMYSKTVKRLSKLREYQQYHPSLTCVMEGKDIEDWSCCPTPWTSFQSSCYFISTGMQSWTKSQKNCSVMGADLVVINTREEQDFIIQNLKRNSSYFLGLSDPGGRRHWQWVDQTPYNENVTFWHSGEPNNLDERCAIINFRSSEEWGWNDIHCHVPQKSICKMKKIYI

[6] = target: T4, recombinant rhesus BDCA2 extracellular domain (UniProt A0A1D5QFY5, residues 45-212) (rhesus, UniProt G7N5W2 45-211); assay: SPR (Biacore), antibody captured on Protein A chip, recombinant BDCA2 ECD flowed over
T4 construct: also called Monkey BDCA2
T4 sequence: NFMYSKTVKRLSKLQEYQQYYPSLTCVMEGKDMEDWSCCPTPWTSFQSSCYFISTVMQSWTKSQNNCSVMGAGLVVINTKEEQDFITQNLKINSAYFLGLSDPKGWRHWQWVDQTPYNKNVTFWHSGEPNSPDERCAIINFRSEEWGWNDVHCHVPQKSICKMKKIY
Description: (§1) BDCA2 antibody binding kinetics were measured using a Biacore surface plasmon resonance (SPR) instrument (GE Life Sciences). Briefly, anti-BDCA2 antibodies were captured on a Protein A sensor chip (GE Life Sciences). The recombinant BDCA2 proteins were then flowed over the captured antibodies over a range of concentrations, at a rate of 50 μL/minute. The data was analyzed to determine kinetic constants using the BIAevaluation software package (GE Life Sciences).

[7] = target: T2, recombinant human BDCA2 extracellular …; assay: as above
Description: as §1

[8] = target: T2, recombinant human BDCA2 extracellular …; assay: SPR (Biacore), antibody as ligand, HsCD303HIS as sample, 25 °C, 1:1 Binding fit; Table 1 prints 7.29 x 10^5, but the sheet's exponent fits the printed kd 3.271E-4 and KD 4.487E-9

mIgG1-APCCy7 (antibody)
% of the gated Lin-CD123+ cells in Q2 (CD123+, APCCy7+) [1]: 7.29%

B1: NPB-303 humanized anti-BDCA2 monoclonal antibody (huIgG1) (antibody, V domains shown)
VH: EVQLVESGGGLVKPGGSLRLSCAASGFTFSTMSWVRQAPGKRLEWVASISSGGSTYYPDSVKGRFTISRDNAKNSLYLQMNSLRAEDTAVYYCARPSYDGYSSWFAYWGQGTLVTVSS
VL: EIVLTQSPATLSLSPGERATLSCKASQSVDYDGDGFMNWYQQKPGQAPRLLIYTASNLESGVPARFSGSGSGTDFTLTISSLEPEDFAVYYCQQSNEDPWTFGGGTKVEIKR
notes: Humanized from mouse mAb 12b, human IgG1/kappa
EC50 (read off the curve) [2]: ~0.5 nM and ~0.3 nM | Kd [3]: ~1 nM | koff [3]: ~0.00033 s⁻¹ | kon [3]: ~210000 M⁻¹ s⁻¹ | Kd [4]: 1.19 nM | koff [4]: 0.000156 s⁻¹ | kon [4]: 131000 M⁻¹ s⁻¹ | IC50 of inhibition of IFNα production by CpG-stimulated human PBMC (multiple donors) [5]: ~3 ng/mL | Kd [6]: 9.2 nM | koff [6]: 0.00157 s⁻¹ | kon [6]: 170000 M⁻¹ s⁻¹ | koff [7]: 0.000327 s⁻¹ | kon [8]: 72900 M⁻¹ s⁻¹
